# According to publication PMC4191155, “FaPOD27 functions in the metabolism of polyphenols in strawberry fruit (Fragaria sp.)” (Frontiers in Plant Science, 2014):
# T1: FaPOD27 (Fragaria x ananassa, UniProt J7IER7)
# T1 construct: GST fusion, E. coli, crude protein
# T1 sequence (J7IER7 1-329): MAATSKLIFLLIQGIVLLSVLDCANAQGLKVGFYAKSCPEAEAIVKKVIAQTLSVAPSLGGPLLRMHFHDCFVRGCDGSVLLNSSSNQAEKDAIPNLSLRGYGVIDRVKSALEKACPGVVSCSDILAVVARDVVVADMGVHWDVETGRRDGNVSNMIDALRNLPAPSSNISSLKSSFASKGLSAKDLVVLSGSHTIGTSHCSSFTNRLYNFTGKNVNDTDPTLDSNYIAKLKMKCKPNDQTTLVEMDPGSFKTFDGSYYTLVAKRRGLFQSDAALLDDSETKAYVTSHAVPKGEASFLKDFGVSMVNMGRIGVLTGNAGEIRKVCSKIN
# T2: FaCAD (Fragaria x ananassa, UniProt J7IAL0)
# T2 construct: full-length ORF 1077 bp, 359 aa, 39 kDa; pYES2 in S. cerevisiae INVSc1, crude protein
# T2 sequence (J7IAL0 1-359): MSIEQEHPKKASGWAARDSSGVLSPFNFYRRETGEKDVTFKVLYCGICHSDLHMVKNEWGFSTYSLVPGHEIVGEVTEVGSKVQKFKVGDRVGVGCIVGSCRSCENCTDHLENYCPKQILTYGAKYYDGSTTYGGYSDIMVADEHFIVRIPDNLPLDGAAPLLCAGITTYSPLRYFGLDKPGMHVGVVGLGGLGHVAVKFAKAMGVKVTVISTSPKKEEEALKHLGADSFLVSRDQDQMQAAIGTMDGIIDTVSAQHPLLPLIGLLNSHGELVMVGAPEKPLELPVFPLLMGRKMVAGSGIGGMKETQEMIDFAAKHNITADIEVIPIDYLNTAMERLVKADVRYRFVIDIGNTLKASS
# B1: GST-FaCCR (Fragaria x ananassa) (protein)
# chain: MPVDNCSSLSGHGQTVCVTGAGGFFASWLVKLLLERGYNVRGTVRNPEDPKNAHLRELEGAKERLSLRKADLLDFESLKEAINGCDGVFHTASPVTDDPEQMVEPAVNGTKNVIVAAAEAKVKRVVFTSSIGAVYMDPARGPDVVVDESCWSDLEFCKNTKNWYCYGKAVAEQAAWEEAKERGVDLVVVNPVLVLGPLLQPTINASIIHILKYLTGSAKTYANSVQAYVHVKDVALAHILVYETPSASGRYLCAESVLHRGDVVEILAKFFPEYPIPSKLKDDGKPRAIPYKFSNQKLQDLGLEFTSVKQSLYDTVKSLQEKGHLKVPTKQEEDSFKIQ
# Experiments:
# FaPOD27 = molecular target: T1, FaPOD27; assay: LC-UV-ESI-MSn product identification; type: biochemical; settings: H2O2, sodium tartrate pH 3.5, room temperature; crude E. coli protein
# FaCAD = molecular target: T2, FaCAD; assay: LC-UV-ESI-MSn product identification; type: biochemical; settings: NADPH 200 μM, coniferaldehyde 100 μM, sodium phosphate pH 6.5, 30 °C; crude yeast protein
# [1] = substrate: CC(C)(COP(=O)(O)OP(=O)(O)OC[C@H]1O[C@@H](n2cnc3c(N)ncnc32)[C@H](O)[C@@H]1OP(=O)(O)O)[C@@H](O)C(=O)NCCC(=O)NCCSC(=O)/C=C/c1ccc(O)c(O)c1; assay: spectrophotometric CCR assay; type: biochemical, Fragaria x ananassa; settings: NADPH, sodium phosphate, pH optimum 6, 25 °C, apparent Km
# Description: (§1) spectrophotometric CCR assay on GST-FaCCR
# [2] = substrate: CC(C)(COP(=O)(O)OP(=O)(O)OC[C@H]1O[C@@H](n2cnc3c(N)ncnc32)[C@H](O)[C@@H]1OP(=O)(O)O)[C@@H](O)C(=O)NCCC(=O)NCCSC(=O)/C=C/c1ccc(O)cc1; assay: spectrophotometric CCR assay; type: biochemical, Fragaria x ananassa; settings: NADPH, sodium phosphate, pH optimum 6, 25 °C, apparent Km
# Description: as §1
# [3] = substrate: COc1cc(/C=C/C(=O)SCCNC(=O)CCNC(=O)[C@H](O)C(C)(C)COP(=O)(O)OP(=O)(O)OC[C@H]2O[C@@H](n3cnc4c(N)ncnc43)[C@H](O)[C@@H]2OP(=O)(O)O)ccc1O; assay: spectrophotometric CCR assay; type: biochemical, Fragaria x ananassa; settings: NADPH, sodium phosphate, pH optimum 6, 25 °C, apparent Km
# Description: as §1
molecule,measurement,setting,value
COc1cc(/C=C/C(=O)O)ccc1O [ferulic acid],LC-UV-ESI-MSn product identification,FaPOD27,ferulic acid and coniferyl alcohol were almost completely oxidized in the presence of H2O2
COc1cc(/C=C/C=O)ccc1O [coniferaldehyde],LC-UV-ESI-MSn product identification,FaCAD,FaCAD was expressed in yeast cells and showed that coniferyl alcohol was generated
COc1cc(/C=C/CO)ccc1O [coniferyl alcohol],LC-UV-ESI-MSn product identification,FaPOD27,ferulic acid and coniferyl alcohol were almost completely oxidized in the presence of H2O2
B1,Km,[1],25.48 ± 0.82 µM
same,kcat/Km,[1],1.15 M⁻¹ s⁻¹
same,Km,[2],24.75 ± 1.23 µM
same,kcat/Km,[2],1.07 M⁻¹ s⁻¹
same,Km,[3],16.11 ± 1.39 µM
same,kcat/Km,[3],145 M⁻¹ s⁻¹
